Measured values taken from article PMC10001486, “Artificial Intelligence-Based Computational Screening and Functional Assays Identify Candidate Small Molecule Antagonists of PTPmu-Dependent Adhesion” (International Journal of Molecular Sciences, 2023).

Biological target: the molecule itself
Assay: bead aggregation assay; streptavidin MonoMag beads (1 micron) coated with biotin-tagged PTPµ21-365avi; PBS + 0.01% Tween 20; room temperature; rotation at 150 rpm for 30 min; aggregates over 50 µm^2 counted by microscopy

B1: PTPµ21-365avi (fragment of PTPµ containing the MAM, Ig, and first FNIII repeat) (domain or fragment, human, UniProt P28827 21-365, looked up)
chain: ETFSGGCLFDEPYSTCGYSQSEGDDFNWEQVNTLTKPTSDPWMPSGSFMLVNASGRPEGQRAHLLLPQLKENDTHCIDFHYFVSSKSNSPPGLLNVYVKVNNGPLGNPIWNISGDPTRTWNRAELAISTFWPNFYQVIFEVITSGHQGYLAIDEVKVLGHPCTRTPHFLRIQNVEVNAGQFATFQCSAIGRTVAGDRLWLQGIDVRDAPLKEIKVTSSRRFIASFNVVNTTKRDAGKYRCMIRTEGGVGISNYAELVVKEPPVPIAPPQLASVGATYLWIQLNANSINGDGPIVAREVEYCTASGSWNDRQPVDSTSYKIGHLDPDTEYEISVLLTRPGEGGTGS
modifications: biotin (biotin-tagged)
notes: PTPµ, aa 21-365: MAM domain, Ig domain and first FNIII repeat; held on streptavidin beads by the biotin on the avi tag; the species is stated only for the full-length protein and by the UniProt entry; also called extracellular fragment of PTPmu; source: bacterially expressed
  binding result: binds
